B1: GST-tagged PRPF6 middle HAT-containing domain (PRPF6M, residues 307-607) (domain or fragment, human, UniProt O94906 307-607, looked up)
chain: HHPPAWIASARLEEVTGKLQVARNLIMKGTEMCPKSEDVWLEAARLQPGDTAKAVVAQAVRHLPQSVRIYIRAAELETDIRAKKRVLRKALEHVPNSVRLWKAAVELEEPEDARIMLSRAVECCPTSVELWLALARLETYENARKVLNKARENIPTDRHIWITAAKLEEANGNTQMVEKIIDRAITSLRANGVEINREQWIQDAEECDRAGSVATCQAVMRAVIGIGIEEEDRKHTWMEDADSCVAHNALECARAIYAYALQVFPSKKSVWLRAAYFEKNHGTRESLEALLQRAVAHCPKA
notes: PRPF6 (U5-102 kD protein), human, residues 307-607, HAT domains 1-5 according to Pfam analysis; Cloned in pGEX6P-1 via EcoRI and SalI; also called GST-PRPF6M; PRP6F-M; not shown: GST, N-terminal, kept

Assays:
Experiment in all cases: pull-down; GST-tagged PRPF6 domain from 100 µl E. coli extract bound to glutathione sepharose beads in PBS, excess removed and beads washed; 0.1 nmol purified His-tagged PRPF31 added in 200 µl, 30 min at 4 °C; three washes with chilled PBS, eluted with reduced glutathione; Western blots with Penta-His and anti-GST antibodies; bands quantified and normalised to WT, four determinations
Conditions in all cases: both partners purified
[1] = target: T1, His-tagged PRPF31, wild type (human, UniProt Q8WWY3 1-499)
T1 construct: also called WT PRPF31; PRPF31-His; not shown: His tag, C-terminal, kept
T1 sequence (looked up): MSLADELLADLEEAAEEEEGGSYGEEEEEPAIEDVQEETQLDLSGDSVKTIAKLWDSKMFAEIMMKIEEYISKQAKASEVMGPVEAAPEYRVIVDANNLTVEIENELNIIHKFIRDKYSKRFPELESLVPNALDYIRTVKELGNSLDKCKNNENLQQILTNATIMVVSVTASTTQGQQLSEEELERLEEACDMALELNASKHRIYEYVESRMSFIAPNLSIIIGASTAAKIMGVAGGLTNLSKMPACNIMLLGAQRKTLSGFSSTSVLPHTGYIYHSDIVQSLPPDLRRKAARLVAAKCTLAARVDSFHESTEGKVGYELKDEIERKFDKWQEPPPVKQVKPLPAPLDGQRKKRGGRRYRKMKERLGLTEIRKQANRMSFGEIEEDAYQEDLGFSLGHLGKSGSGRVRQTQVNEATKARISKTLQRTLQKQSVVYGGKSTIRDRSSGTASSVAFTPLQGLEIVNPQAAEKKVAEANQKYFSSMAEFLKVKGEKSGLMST

[2] = target: B1
[3] = target: T2, GST-tagged PRPF6 C-terminal HAT-containing domain (PRPF6C, residues 607-941) (human, UniProt O94906 607-941)
T2 construct: PRPF6 (U5-102 kD protein), human, residues 607-941, HAT domains 6-9 according to Pfam analysis; the forward primer printed for PRPF6C is nearly the same as that of PRPF6M; Cloned in pGEX6P-1 via EcoRI and SalI; also called GST-PRPF6C; PRP6F-C; not shown: GST, N-terminal, kept
T2 sequence (looked up): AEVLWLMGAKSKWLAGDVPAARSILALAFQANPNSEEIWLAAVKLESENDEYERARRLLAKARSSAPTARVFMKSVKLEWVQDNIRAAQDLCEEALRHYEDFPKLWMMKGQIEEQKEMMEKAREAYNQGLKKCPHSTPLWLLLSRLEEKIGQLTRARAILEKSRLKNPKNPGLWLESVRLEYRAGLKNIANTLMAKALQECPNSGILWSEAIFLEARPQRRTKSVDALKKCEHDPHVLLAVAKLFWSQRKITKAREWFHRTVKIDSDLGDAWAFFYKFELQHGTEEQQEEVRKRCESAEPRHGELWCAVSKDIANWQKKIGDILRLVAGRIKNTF

Binder | binding result [1] | ratio of mutant:WT PRPF31 band in the pull-down [2] | ratio of mutant:WT PRPF31 band in the pull-down [3]
B1 | binds |  | 
His-tagged PRPF31 A216P mutant (natural protein, human, UniProt Q8WWY3 1-499, looked up, PRPF31 splicing factor, human, with the RP11 patient missense mutation A216P, cDNA in pTriEx-1; A216P is a disease mutation found in RP11 patients; also called mutant PRPF31; not shown: His tag, C-terminal, kept) MSLADELLADLEEAAEEEEGGSYGEEEEEPAIEDVQEETQLDLSGDSVKTIAKLWDSKMFAEIMMKIEEYISKQAKASEVMGPVEAAPEYRVIVDANNLTVEIENELNIIHKFIRDKYSKRFPELESLVPNALDYIRTVKELGNSLDKCKNNENLQQILTNATIMVVSVTASTTQGQQLSEEELERLEEACDMALELNASKHRIYEYVESRMSFIPPNLSIIIGASTAAKIMGVAGGLTNLSKMPACNIMLLGAQRKTLSGFSSTSVLPHTGYIYHSDIVQSLPPDLRRKAARLVAAKCTLAARVDSFHESTEGKVGYELKDEIERKFDKWQEPPPVKQVKPLPAPLDGQRKKRGGRRYRKMKERLGLTEIRKQANRMSFGEIEEDAYQEDLGFSLGHLGKSGSGRVRQTQVNEATKARISKTLQRTLQKQSVVYGGKSTIRDRSSGTASSVAFTPLQGLEIVNPQAAEKKVAEANQKYFSSMAEFLKVKGEKSGLMST |  | 4.2 fold (mutant:WT) | 2.1 fold (mutant:WT)

Reference: paper PMC2324120, “Disease mechanism for retinitis pigmentosa (RP11) caused by missense mutations in the splicing factor gene PRPF31” (Molecular Vision, 2008)
